The text below walks through data of the supplement of paper PMC7877785.

This data set in a line: self-splicing fitness, log relative to wild type (ln ratio); higher = more splicing; Tetrahymena group I intron in knt gene, E. coli kanamycin selection, DiMSum; sequences stand for … in CUCUCU…GGAGGGAAAAGUUAUCAGGCAUGCACCUGGUAGCUAGUCUUUAAACCAAUAGAUUGCAUCGGUUUAAAAGGCAAGACCGUCAAAUUGCGGGAAAGGGGUCAACAGCCGUUCAGUACCAAGUCUCAGGGGAAACUUUGAGAUGGCCUUGCAAAGGGUAUGGUAAUAAGCUGACGGACAUGGUCCUAACCACGCAGCCAAGUCCUAAGUCAACAGAUCUUCUGUUGAUAUGGAUGCAGUUCACAGACUAAAUGUCGGUCGGGGAAGAUGUAUUCUUCUCAUAAGAUAUAGUCGGACCUCUCCUUAAUGGGAGCUAGCGGAUGAAGUGAUGCAACACUGGAGCCGCUGGGAACUAAUUUGUAUGCGAAAGUAUAUUGAUUAGUUUUGGAGUACUCGUGGUCG
In outline: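 Colonies from six replicate transformations of E. coli BL21(DE3) were pooled and amplicon-sequenced on an Illumina HiSeq 2500. The library placed an intron with all eight P1ex-region nucleotides randomised inside the knt kanamycin-resistance gene on pET-22b(+), and cells grew overnight at 37°C or 30°C on LB agar with or without 25 μg/mL kanamycin (plus 100 μg/mL carbenicillin, 50 μM IPTG, 0.2% rhamnose). Fitness is the DiMSum error-weighted combination of wild-type-normalised replicate fold changes, kanamycin versus none.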

± gives the uncertainty stated by the source.

As for AGAAAGCAAUAUUACGUAAG, the “self-splicing fitness (ln)” value is -1.61 ± 0.084 (30 °C) and -0.0907 ± 0.095 (37 °C). Turning to AGAAAGCAAUAUUACGUGGU, the “self-splicing fitness (ln)” value (30 °C) is -4.26 ± 0.29 and the “self-splicing fitness (ln)” value (37 °C) was -2.41 ± 0.16.

Consider AGACAGCAAUAUUACGACUC, for which the “self-splicing fitness (ln)” value is -2.28 ± 0.18 (30 °C) and -0.623 ± 0.2 (37 °C).

On to AGACAGCAAUAUUACGAGGU, for which the “self-splicing fitness (ln)” value was -3.46 ± 0.16 (30 °C) and -1.87 ± 0.13 (37 °C).

As for AGACAGCAAUAUUACGAUCU, the “self-splicing fitness (ln)” value was -2.62 ± 0.12 (30 °C) and -0.863 ± 0.1 (37 °C).

On to AGACAGCAAUAUUACGCGGC, for which the “self-splicing fitness (ln)” value (30 °C) is -3.51 ± 0.24 and the “self-splicing fitness (ln)” value (37 °C) was -2.15 ± 0.21.

Consider AGACAGCAAUAUUACGCGUA, for which the “self-splicing fitness (ln)” value by setting is: (30 °C) -1.43 ± 0.084; (37 °C) -0.867 ± 0.074. With AGACAGCAAUAUUACGGAAA, the “self-splicing fitness (ln)” value by setting is: (30 °C) -3.32 ± 0.26; (37 °C) -1.48 ± 0.13.

Regarding AGACAGCAAUAUUACGGAUU, the “self-splicing fitness (ln)” value reads like this: (30 °C) -2.55 ± 0.088; (37 °C) -1.45 ± 0.089. Taken in the same sequence, the figures for AGACAGCAAUAUUACGGCCG were -1.26 ± 0.078 and -0.403 ± 0.12. Regarding AGACAGCAAUAUUACGGCGA, the “self-splicing fitness (ln)” value is, setting by setting: (30 °C) -0.438 ± 0.069; (37 °C) -0.143 ± 0.083. As for AGACAGCAAUAUUACGGGAG, the “self-splicing fitness (ln)” value reads like this: (30 °C) -3.93 ± 0.16; (37 °C) -2.89 ± 0.17. Taken in the same sequence, the figures for AGACAGCAAUAUUACGGGCU were -1.78 ± 0.11 and -0.732 ± 0.13. On the same counts, the results for AGACAGCAAUAUUACGGGUU are -1.96 ± 0.1 and -1.12 ± 0.12. Regarding AGACAGCAAUAUUACGGUAU, the “self-splicing fitness (ln)” value is, setting by setting: (30 °C) -2.55 ± 0.1; (37 °C) -0.734 ± 0.091. For the sequence AGACAGCAAUAUUACGGUCU, the “self-splicing fitness (ln)” value (30 °C) was -3.78 ± 0.23 and the “self-splicing fitness (ln)” value (37 °C) is -2.48 ± 0.25. On the same counts, the results for AGACAGCAAUAUUACGGUGA are -1.49 ± 0.074 and -0.921 ± 0.095. On the same counts, the results for AGACAGCAAUAUUACGUAGA are -2.6 ± 0.081 and -2.5 ± 0.11.

For the sequence AGACAGCAAUAUUACGUAGG, the “self-splicing fitness (ln)” value reads like this: (30 °C) -2.6 ± 0.11; (37 °C) -1.28 ± 0.11.

Turning to AGACAGCAAUAUUACGUUCU, the “self-splicing fitness (ln)” value is, setting by setting: (30 °C) -3.7 ± 0.18; (37 °C) -3.16 ± 0.21. Regarding AGAGAGCAAUAUUACGAACC, the “self-splicing fitness (ln)” value (30 °C) is -2.98 ± 0.39 and the “self-splicing fitness (ln)” value (37 °C) was -1.57 ± 0.38.

AGAGAGCAAUAUUACGAAGG: the “self-splicing fitness (ln)” value runs as follows: (30 °C) -3.13 ± 0.39; (37 °C) -1.42 ± 0.37.

As to AGAGAGCAAUAUUACGAGUA, the “self-splicing fitness (ln)” value (37 °C) was -2.01 ± 0.45.

In the case of AGAGAGCAAUAUUACGAUUG, the “self-splicing fitness (ln)” value runs as follows: (30 °C) -3.12 ± 0.25; (37 °C) -2.88 ± 0.35. For the sequence AGAGAGCAAUAUUACGCAAG, the “self-splicing fitness (ln)” value runs as follows: (30 °C) -3.46 ± 0.3; (37 °C) -2.29 ± 0.3. For AGAGAGCAAUAUUACGCGAG, for the setting “30 °C”, the “self-splicing fitness (ln)” value was -2.97 ± 0.34. As for AGAGAGCAAUAUUACGCGUA, the “self-splicing fitness (ln)” value (30 °C) is -2.46 ± 0.27 and the “self-splicing fitness (ln)” value (37 °C) is -2.08 ± 0.48.

As for AGAGAGCAAUAUUACGCGUC, the “self-splicing fitness (ln)” value reads like this: (30 °C) -2.64 ± 0.36; (37 °C) -0.28 ± 0.28. Regarding AGAGAGCAAUAUUACGCGUU, the “self-splicing fitness (ln)” value (30 °C) is -2.09 ± 0.4.

Turning to AGAGAGCAAUAUUACGCUAG, the “self-splicing fitness (ln)” value was -2.84 ± 0.28 (30 °C) and -2.91 ± 0.38 (37 °C). In the case of AGAGAGCAAUAUUACGCUCU, for the setting “30 °C”, the “self-splicing fitness (ln)” value was -2.47 ± 0.47. On to AGAGAGCAAUAUUACGGAAC, for which the “self-splicing fitness (ln)” value was -2.74 ± 0.38 (30 °C) and -1.83 ± 0.4 (37 °C). For the sequence AGAGAGCAAUAUUACGGCUG, the “self-splicing fitness (ln)” value (30 °C) is -0.227 ± 0.24 and the “self-splicing fitness (ln)” value (37 °C) was -2.26 ± 0.49. As to AGAGAGCAAUAUUACGGGAG, the “self-splicing fitness (ln)” value (30 °C) was -2.6 ± 0.4. Consider AGAGAGCAAUAUUACGGGUG, for which the “self-splicing fitness (ln)” value (30 °C) was -3.31 ± 0.32.

In the case of AGAGAGCAAUAUUACGUACC, the “self-splicing fitness (ln)” value runs as follows: (30 °C) -1.69 ± 0.28; (37 °C) -0.0438 ± 0.38. AGAGAGCAAUAUUACGUAUU: the “self-splicing fitness (ln)” value reads like this: (30 °C) -4.03 ± 0.35; (37 °C) -3.1 ± 0.3. Taken in the same sequence, the figures for AGAGAGCAAUAUUACGUGCG were -1.98 ± 0.16 and -1.79 ± 0.26. In the case of AGAGAGCAAUAUUACGUGGA, the “self-splicing fitness (ln)” value is, setting by setting: (30 °C) -3.15 ± 0.4; (37 °C) -2.3 ± 0.5. Turning to AGAGAGCAAUAUUACGUUAC, the “self-splicing fitness (ln)” value was -2.67 ± 0.22 (30 °C) and -2.19 ± 0.42 (37 °C). Taken in the same sequence, the figures for AGAGAGCAAUAUUACGUUGU were -3.79 ± 0.21 and -3.07 ± 0.2. With AGAUAGCAAUAUUACGAACA, the “self-splicing fitness (ln)” value is -1.15 ± 0.11 (30 °C) and -0.00294 ± 0.12 (37 °C). Taken in the same sequence, the figures for AGAUAGCAAUAUUACGACGA were -0.422 ± 0.095 and -0.749 ± 0.085. On the same counts, the results for AGAUAGCAAUAUUACGACUU are -0.125 ± 0.065 and -0.304 ± 0.086.

With AGAUAGCAAUAUUACGAUCU, the “self-splicing fitness (ln)” value runs as follows: (30 °C) -1.53 ± 0.14; (37 °C) -0.462 ± 0.17. With AGAUAGCAAUAUUACGCGAU, the “self-splicing fitness (ln)” value is -2.53 ± 0.25 (30 °C) and -2.15 ± 0.27 (37 °C). On the same counts, the results for AGAUAGCAAUAUUACGCGUA are -1.2 ± 0.12 and -1.41 ± 0.13.

For the sequence AGAUAGCAAUAUUACGCUCG, the “self-splicing fitness (ln)” value is, setting by setting: (30 °C) -0.0589 ± 0.11; (37 °C) -0.37 ± 0.12. On the same counts, the results for AGAUAGCAAUAUUACGCUCU are -3.31 ± 0.23 and -1.46 ± 0.21.

As to AGAUAGCAAUAUUACGGAUG, the “self-splicing fitness (ln)” value (30 °C) was -2.96 ± 0.19 and the “self-splicing fitness (ln)” value (37 °C) was -2.3 ± 0.28. On the same counts, the results for AGAUAGCAAUAUUACGGCGA are -0.537 ± 0.14 and -0.0635 ± 0.14.

Consider AGAUAGCAAUAUUACGGCGG, for which the “self-splicing fitness (ln)” value runs as follows: (30 °C) -0.92 ± 0.12; (37 °C) -1.04 ± 0.15.

As for AGAUAGCAAUAUUACGGCUC, the “self-splicing fitness (ln)” value (30 °C) was -1.14 ± 0.32 and the “self-splicing fitness (ln)” value (37 °C) is -0.656 ± 0.37. With AGAUAGCAAUAUUACGGGGU, the “self-splicing fitness (ln)” value is -3.5 ± 0.16 (30 °C) and -2.26 ± 0.13 (37 °C).

AGAUAGCAAUAUUACGGUAG: the “self-splicing fitness (ln)” value was -3.93 ± 0.37 (30 °C) and -1.69 ± 0.21 (37 °C). Regarding AGAUAGCAAUAUUACGUACA, the “self-splicing fitness (ln)” value runs as follows: (30 °C) -1.26 ± 0.055; (37 °C) -0.0902 ± 0.08.

For the sequence AGAUAGCAAUAUUACGUCAC, the “self-splicing fitness (ln)” value reads like this: (30 °C) -1.17 ± 0.27; (37 °C) -2.78 ± 0.48. Taken in the same sequence, the figures for AGAUAGCAAUAUUACGUCCA were 0.498 ± 0.11 and 0.122 ± 0.18.

With AGAUAGCAAUAUUACGUGCU, the “self-splicing fitness (ln)” value reads like this: (30 °C) -1.39 ± 0.1; (37 °C) -0.664 ± 0.12. With AGAUAGCAAUAUUACGUGGG, the “self-splicing fitness (ln)” value reads like this: (30 °C) -2.85 ± 0.15; (37 °C) -2.49 ± 0.19. In the case of AGAUAGCAAUAUUACGUGUA, the “self-splicing fitness (ln)” value reads like this: (30 °C) -2.9 ± 0.14; (37 °C) -1.82 ± 0.12. On the same counts, the results for AGAUAGCAAUAUUACGUUGU are -2.26 ± 0.08 and -2.39 ± 0.11.

Take AGCAAGCAAUAUUACGCCAA: the “self-splicing fitness (ln)” value is, setting by setting: (30 °C) -2.89 ± 0.2; (37 °C) -1.97 ± 0.14. As for AGCAAGCAAUAUUACGCCCA, the “self-splicing fitness (ln)” value reads like this: (30 °C) -0.157 ± 0.17; (37 °C) -0.704 ± 0.22. With AGCAAGCAAUAUUACGCGUG, the “self-splicing fitness (ln)” value (30 °C) was -3.87 ± 0.19 and the “self-splicing fitness (ln)” value (37 °C) was -3.49 ± 0.27.

Regarding AGCAAGCAAUAUUACGCUCA, the “self-splicing fitness (ln)” value (30 °C) was -2.66 ± 0.18 and the “self-splicing fitness (ln)” value (37 °C) is -1.69 ± 0.15.

Consider AGCAAGCAAUAUUACGCUUC, for which, where the note is “37 °C”, the “self-splicing fitness (ln)” value is -3.29 ± 0.42. In the case of AGCAAGCAAUAUUACGGCCG, the “self-splicing fitness (ln)” value reads like this: (30 °C) -0.219 ± 0.071; (37 °C) -0.111 ± 0.094. On the same counts, the results for AGCAAGCAAUAUUACGGCUU are -3.17 ± 0.18 and -0.891 ± 0.12.

AGCAAGCAAUAUUACGGGCC: the “self-splicing fitness (ln)” value is -3.26 ± 0.23 (30 °C) and -2.32 ± 0.22 (37 °C). Taken in the same sequence, the figures for AGCAAGCAAUAUUACGGGCG were -0.538 ± 0.061 and -0.377 ± 0.074. Taken in the same sequence, the figures for AGCAAGCAAUAUUACGGGGU were -2.45 ± 0.15 and -2 ± 0.12.

Consider AGCAAGCAAUAUUACGGGUU, for which the “self-splicing fitness (ln)” value is, setting by setting: (30 °C) -1.67 ± 0.1; (37 °C) -2.17 ± 0.14. Taken in the same sequence, the figures for AGCAAGCAAUAUUACGGUGC were -1.6 ± 0.11 and -3.4 ± 0.22.

AGCAAGCAAUAUUACGUCUU: the “self-splicing fitness (ln)” value (30 °C) is -1.38 ± 0.068 and the “self-splicing fitness (ln)” value (37 °C) was -0.234 ± 0.074. On the same counts, the results for AGCAAGCAAUAUUACGUGAC are -2.49 ± 0.2 and -1.85 ± 0.27. As to AGCAAGCAAUAUUACGUUGU, the “self-splicing fitness (ln)” value reads like this: (30 °C) -3.33 ± 0.12; (37 °C) -2.87 ± 0.14.
